From publication PMC4019986, “Structural and biochemical characterization of the KLHL3–WNK kinase interaction important in blood pressure regulation” (Biochemical Journal, 2014)
“And” between values parts separate entries of the source, which are not always exact repeats. Identical values can stand only once. Like-named read-outs stand apart in the source and are kept apart here. Ends that are not written are not given here. Peptide text beside a SMILES is read from it. * marks the point of attachment. X1 = N[C@H]1CS[As]2SC[C@H](NC1=O)C(=O)N1CCC[C@H]1C(=O)NCC(=O)N[C@H]1CS[As](SC[C@@H](C(=O)*)NC1=O)c1c(O)ccc3c1Oc1c(ccc(O)c12)C31OC(=O)c2ccccc21

Key:
GST–KLHL3^290–587 [1] = molecular target: T1, GST–KLHL3^290–587 (Homo sapiens, UniProt Q9UH77); assay: Fluorescence polarization binding of Lumio-Green-labelled degron peptides to the KLHL3 Kelch domain
T1 construct: the isolated C-terminal Kelch domain (residues 290–587); made in house; host or cells: E. coli BL21
T1 sequence (Q9UH77 290-587): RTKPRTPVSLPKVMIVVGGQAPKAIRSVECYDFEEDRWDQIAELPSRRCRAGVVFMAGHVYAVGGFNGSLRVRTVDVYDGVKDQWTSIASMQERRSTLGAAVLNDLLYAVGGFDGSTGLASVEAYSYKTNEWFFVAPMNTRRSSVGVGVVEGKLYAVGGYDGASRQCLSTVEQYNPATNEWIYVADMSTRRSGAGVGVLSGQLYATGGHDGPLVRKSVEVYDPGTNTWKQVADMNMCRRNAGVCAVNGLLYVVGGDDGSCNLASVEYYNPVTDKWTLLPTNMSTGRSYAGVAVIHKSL

[2] = molecular target: core 11-residue WNK4 peptide (WNK4 WT 557–567), Lumio-Green-labelled; assay: fluorescence polarisation; Kelch protein titrated against 10 nM Lumio-Green-labelled peptide; 25°C; 50 mM Tris/HCl pH 7.5, 150 mM NaCl, 2 mM DTT; one-site specific binding with Hill slope; duplicates, at least 12 points per curve
[3] = molecular target: T2, human KLHL3 Kelch domain (residues 298–587) (human, UniProt Q9UH77-1 298-587); assay: crystal structure; KLHL3 Kelch domain (9 mg/ml) with 2 mM WNK4 11-mer peptide; sitting drop, 0.1 M acetate pH 4.3, 0.2 M ammonium sulfate, 25–35% PEG 4000; details: both partners purified
T2 construct: KLHL3, human, NM_017415.2, Kelch domain, residues 298-587; Vector pNIC28-Bsa4 (GenBank EF198106); The results speak of unmodelled residues 296–299, which lie partly before the stated limit; also called KLHL3 (crystallization construct); source: E. coli BL21(DE3)-R3-pRARE, purified (Ni-Sepharose, rTEV cleavage, HiTrap Q, Superdex 200); not shown: His6, N-terminal, cleaved
T2 sequence (looked up): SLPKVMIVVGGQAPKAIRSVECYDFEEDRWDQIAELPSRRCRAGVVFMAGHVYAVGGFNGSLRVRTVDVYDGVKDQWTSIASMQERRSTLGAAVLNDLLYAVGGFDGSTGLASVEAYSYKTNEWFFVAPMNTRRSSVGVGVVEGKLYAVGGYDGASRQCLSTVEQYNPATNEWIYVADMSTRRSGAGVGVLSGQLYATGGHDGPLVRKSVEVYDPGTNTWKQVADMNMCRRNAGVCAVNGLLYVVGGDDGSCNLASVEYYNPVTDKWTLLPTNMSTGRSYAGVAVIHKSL

[4] = molecular target: T3, human KLHL2 Kelch domain (residues 294–593) (human, UniProt O95198 294-593); assay: crystal structure; KLHL2 Kelch domain (9 mg/ml) with 2 mM WNK4 11-mer peptide; sitting drop, 20°C, 0.1 M Hepes pH 7.2, 2.5 M ammonium sulfate, 2% PEG 400; details: both partners purified
T3 construct: KLHL2, human, IMAGE clone 4791972, Kelch domain, residues 294-593; Vector pNIC28-Bsa4 (GenBank EF198106); The results speak of unmodelled residues 292–305, which lie partly before the stated limit; also called KLHL2 (crystallization construct); Mayven; source: E. coli BL21(DE3)-R3-pRARE, purified (Ni-Sepharose, rTEV cleavage, HiTrap SP, Superdex 200); not shown: His6, N-terminal, cleaved
T3 sequence (looked up): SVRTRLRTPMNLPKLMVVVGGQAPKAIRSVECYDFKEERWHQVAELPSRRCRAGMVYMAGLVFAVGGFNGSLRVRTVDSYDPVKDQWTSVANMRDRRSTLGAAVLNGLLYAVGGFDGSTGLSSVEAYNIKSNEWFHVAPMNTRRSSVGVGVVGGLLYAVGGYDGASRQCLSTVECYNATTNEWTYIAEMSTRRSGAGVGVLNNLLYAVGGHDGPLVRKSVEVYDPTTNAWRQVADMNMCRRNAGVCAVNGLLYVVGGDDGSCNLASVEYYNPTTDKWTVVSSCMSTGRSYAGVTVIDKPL

GST–KLHL3^290–587 [5] = molecular target: T4, GST–KLHL3^290–587 (human, UniProt Q9UH77-1 290-587); assay: fluorescence polarisation; Kelch protein titrated against 10 nM Lumio-Green-labelled peptide; 25°C; 50 mM Tris/HCl pH 7.5, 150 mM NaCl, 2 mM DTT; one-site specific binding with Hill slope; duplicates, at least 12 points per curve; details: both partners purified
T4 construct: KLHL3, human, NM_017415.2, C-terminal Kelch domain, residues 290-587; pGEX6P-1, PreScission site between GST and KLHL3; eluted with glutathione as the GST fusion; also called isolated KLHL3 Kelch domain; GST-KLHL3 290-587 wild-type; source: E. coli BL21, purified (glutathione–Sepharose); not shown: GST, N-terminal, kept
T4 sequence (looked up): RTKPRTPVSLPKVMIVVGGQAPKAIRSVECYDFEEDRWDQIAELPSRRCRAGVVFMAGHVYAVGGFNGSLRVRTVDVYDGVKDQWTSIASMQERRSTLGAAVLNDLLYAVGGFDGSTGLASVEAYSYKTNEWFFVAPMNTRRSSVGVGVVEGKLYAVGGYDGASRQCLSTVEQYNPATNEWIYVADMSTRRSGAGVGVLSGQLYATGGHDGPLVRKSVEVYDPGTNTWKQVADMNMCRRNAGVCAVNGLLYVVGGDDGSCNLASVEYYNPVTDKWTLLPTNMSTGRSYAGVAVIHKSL

[6] = molecular target: T5, KEAP1 full-length protein (residues 1–624) (UniProt Q14145 1-624); assay: as above; details: both partners purified
T5 construct: KEAP1, NM_203500.1, amplified from EST IMAGE 3163902, residues 1-624; NM_203500.1 is a human transcript as far as I recall; also called Kelch-like enoyl-CoA hydratase-associated protein 1; source: Sf21 cells, purified (ampicillin–Sepharose, TEV protease release, size-exclusion chromatography); not shown: DAC, N-terminal, cleaved

[7] = disease-causing mutation within the WNK4 degron peptide, Figure 1C

T5 sequence (Q14145 whole entry, the tested form may be a part): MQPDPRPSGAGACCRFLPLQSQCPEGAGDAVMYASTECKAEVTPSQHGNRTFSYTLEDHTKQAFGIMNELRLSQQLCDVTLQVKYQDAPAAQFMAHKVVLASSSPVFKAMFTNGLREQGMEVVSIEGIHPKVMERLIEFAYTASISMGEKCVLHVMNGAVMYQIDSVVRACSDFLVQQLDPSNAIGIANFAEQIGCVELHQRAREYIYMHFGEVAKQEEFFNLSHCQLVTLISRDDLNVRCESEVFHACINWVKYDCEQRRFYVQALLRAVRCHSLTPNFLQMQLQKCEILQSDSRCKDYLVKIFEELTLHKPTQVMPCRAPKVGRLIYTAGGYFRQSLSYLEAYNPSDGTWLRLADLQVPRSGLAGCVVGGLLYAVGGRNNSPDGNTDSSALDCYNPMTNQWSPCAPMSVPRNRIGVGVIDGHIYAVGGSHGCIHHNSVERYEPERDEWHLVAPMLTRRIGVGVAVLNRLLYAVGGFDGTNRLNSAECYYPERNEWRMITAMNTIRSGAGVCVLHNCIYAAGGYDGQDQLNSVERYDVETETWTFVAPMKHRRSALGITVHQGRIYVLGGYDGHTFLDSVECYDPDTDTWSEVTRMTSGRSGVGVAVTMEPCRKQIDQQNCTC

In the case of CC(C)[C@H](NC(=O)[C@H](CO)NC(=O)[C@@H]1CCCN1C(=O)[C@@H]1CCCN1C(=O)CNC(=O)CNC(=O)CNC(=O)CNC(=O)CNC(=O)[C@@H]1CS[As]2SC[C@H](NC(=O)CNC(=O)[C@@H]3CCCN3C(=O)[C@@H]3CS[As](SC[C@H](N)C(=O)N3)c3c(O)ccc4c3Oc3c(ccc(O)c32)C42OC(=O)c3ccccc32)C(=O)N1)C(=O)N[C@@H](Cc1ccccc1)C(=O)N1CCC[C@H]1C(=O)N1CCC[C@H]1C(=O)N[C@@H](CCC(=O)O)C(=O)N1CCC[C@H]1C(=O)N[C@@H](CCC(=O)O)C(=O)N[C@@H](CCC(=O)O)C(=O)N1CCC[C@H]1C(=O)N[C@@H](CCC(=O)O)C(=O)N[C@@H](C)C(=O)N[C@@H](CC(=O)O)C(=O)N[C@@H](CCC(=O)O)C(=O)N[C@@H](Cc1cnc[nH]1)C(=O)N[C@@H](CCC(N)=O)C(=O)O (stereo partly shown) [WNK4 Q565E 549–567] (X1-GGGGGPPSVFPPEPEEPEADEHQ-OH; N-terminus and C-terminus assumed), the “reduction in binding relative to wild-type WNK4 degron peptide” value (GST–KLHL3^290–587 [1]) is reported as 10 fold.

In the case of “WNK4 E562K 549–567: 19-residue WNK4 degron peptide with Gordon's syndrome mutation E562K, Lumio Green labelled (GPPSVFPPEPEEPKADQHQ; not fully specified (N-terminus); also: Lumio Green fluorophore on N-terminal linker CCPGCCGGGG)”, the “binding to KLHL3 in words” value (GST–KLHL3^290–587 [1]; [7]) is reported as “virtually abolished binding”.

“GST–KLHL2^298–593 (from UniProt O95198 298-593) (domain or fragment)” was tested, and the Kd [2] was 260 nM.

“WNK4 D564A 549–567: 19-residue WNK4 degron peptide with Gordon's syndrome mutation D564A, Lumio Green labelled (GPPSVFPPEPEEPEAAQHQ; not fully specified (N-terminus); also: Lumio Green fluorophore on N-terminal linker CCPGCCGGGG)” was tested, and the “reduction in binding relative to wild-type WNK4 degron peptide” value (GST–KLHL3^290–587 [1]; [7]) was 10 fold.

B1: 11-residue WNK4 peptide (EPEEPEADQHQ) used for crystallization (peptide)
peptide: EPEEPEADQHQ
notes: WNK4 acidic degron, residues 557-567; the sentence 'All peptides contained an N-terminal linker' stands in the fluorescence polarization methods; also called WNK4 11-mer peptide; 11-residue WNK4 degron motif; source: synthetic peptide (GL Biochem)
B1: binds [3]; binds [4].

B2: NRF2 degron peptide (NRF2 WT 74–84) (peptide)
peptide: CCPGCCGGGGLQLDEETGEFL
modifications: cysteine pairing not given here; also: Lumio Green fluorophore on N-terminal linker CCPGCCGGGG
notes: nuclear factor-erythroid 2-related factor 2 (NRF2), degron motif, residues 74-84; also called NRF2 degron motif; source: synthetic peptide (GL Biochem)
Work on B2 yielded a Kd (GST–KLHL3^290–587 [5]) greater than 50000 nM.

B3: WNK4 WT 554–564 peptide (peptide)
peptide: FPPEPEEPEAD
modifications: not fully specified (N-terminus); also: Lumio Green fluorophore on N-terminal linker CCPGCCGGGG
notes: WNK4 acidic degron, residues 554-564; source: synthetic peptide (GL Biochem)
In the case of B3, the Kd (GST–KLHL3^290–587 [5]) is reported as greater than 50000 nM.

B4: core 11-residue WNK4 peptide (WNK4 WT 557–567), Lumio-Green-labelled (peptide)
peptide: EPEEPEADQHQ
modifications: not fully specified (N-terminus); also: Lumio Green fluorophore on N-terminal linker CCPGCCGGGG
notes: WNK4 acidic degron, residues 557-567; also called WNK1/4 degron; 11-residue WNK4 (557–567) degron peptide; source: synthetic peptide (GL Biochem)
B4 was tested, and the Kd (GST–KLHL3^290–587 [5]) was 690 nM and 350 nM and 510 nM and the Kd [6] was greater than 50000 nM.

B5: WNK4 E562K 549–567 peptide (peptide)
peptide: GPPSVFPPEPEEPKADQHQ
modifications: not fully specified (N-terminus); also: Lumio Green fluorophore on N-terminal linker CCPGCCGGGG
notes: source: synthetic peptide (GL Biochem)
With B5 the Kd (GST–KLHL3^290–587 [5]) was greater than 50000 nM.

B6: WNK4 Q565E 549–567 peptide (peptide)
peptide: GPPSVFPPEPEEPEADEHQ
modifications: not fully specified (N-terminus); also: Lumio Green fluorophore on N-terminal linker CCPGCCGGGG
notes: as for B5
B6 gave a Kd (GST–KLHL3^290–587 [5]) of 6210 nM.

B7: WNK4 WT 554–567 peptide (peptide)
peptide: FPPEPEEPEADQHQ
modifications: not fully specified (N-terminus); also: Lumio Green fluorophore on N-terminal linker CCPGCCGGGG
notes: WNK4 acidic degron, residues 554-567; source: synthetic peptide (GL Biochem)
For B7, the Kd (GST–KLHL3^290–587 [5]) was 710 nM.

B8: WNK4 WT 555–567 peptide (peptide)
peptide: PPEPEEPEADQHQ
modifications: not fully specified (N-terminus); also: Lumio Green fluorophore on N-terminal linker CCPGCCGGGG
notes: WNK4 acidic degron, residues 555-567; source: synthetic peptide (GL Biochem)
Molecule B8 has a Kd (GST–KLHL3^290–587 [5]) of 910 nM.

B9: WNK4 WT 554–566 peptide (peptide)
peptide: FPPEPEEPEADQH
modifications: not fully specified (N-terminus); also: Lumio Green fluorophore on N-terminal linker CCPGCCGGGG
notes: WNK4 acidic degron, residues 554-566; source: synthetic peptide (GL Biochem)
In the case of B9, the Kd (GST–KLHL3^290–587 [5]) is reported as 7810 nM.

B10: WNK4 WT 556–567 peptide (peptide)
peptide: PEPEEPEADQHQ
modifications: not fully specified (N-terminus); also: Lumio Green fluorophore on N-terminal linker CCPGCCGGGG
notes: WNK4 acidic degron, residues 556-567; source: synthetic peptide (GL Biochem)
Work on B10 yielded a Kd (GST–KLHL3^290–587 [5]) of 290 nM.

B11: WNK3 degron peptide (WNK3 WT 537–547) (peptide)
peptide: ECEETEVDQHV
modifications: not fully specified (N-terminus); also: Lumio Green fluorophore on N-terminal linker CCPGCCGGGG
notes: also called WNK3 motif; source: synthetic peptide (GL Biochem)
Molecule B11 has a Kd (GST–KLHL3^290–587 [5]) of 840 nM and a Kd [6] greater than 50000 nM.

B12: WNK4 D564A 549–567 peptide (peptide)
peptide: GPPSVFPPEPEEPEAAQHQ
modifications: not fully specified (N-terminus); also: Lumio Green fluorophore on N-terminal linker CCPGCCGGGG
notes: as for B5
Molecule B12 has a Kd (GST–KLHL3^290–587 [5]) greater than 50000 nM.
